In PMC7054047 (The FEBS journal, 2019):

Target: the molecule itself
Experiment: SEC

B1: WSCP A0A087HRG5 from Arabis alpina (natural protein)
chain: not shown
Q: For B1, which “stoichiometry N” value is on record?
A: Its value is 4.

B2: WSCP from Arabidopsis thaliana (natural protein, UniProt Q9C7S6 24-215, looked up)
chain: NEPVKDTAGNPLNTREQYFIQPVKTESKNGGGLVPAAITVLPFCPLGITQTLLPYQPGLPVSFVLALGVGSTVMTSSAVNIEFKSNIWPFCKEFSKFWEVDDSSSAPKEPSILIGGKMGDRNSSFKIEKAGEGARANVYKLTTFYGTVGAIPGVWLSAPQLIITKDTAKTLLVKFKKVDDATTATSNLYFPG
Q: For B2, which “stoichiometry N” value is on record?
A: Its value is 4.

B3: WSCP M4FJ52 from Chinese cabbage (Brassica rapa subsp. Pekinensis) (natural protein)
chain: not shown
Q: For B3, which “stoichiometry N” value is on record?
A: Its value is 4.
